For 1 molecule, Kd results are on record in US20070031855A1 (UNIVERSITY OF WYOMING, published 2007).

The target of the experiment is CryIAb toxin of Bacillus thuringiensis (Bacillus thuringiensis, UniProt P0A370 29-607, 125I-labeled (probe in blots and in the cell binding assay; the unlabeled toxin was the competitor)).

B1: Recombinant BT-R1 protein expressed from the BT-R1 cDNA in pcDNA3 in mammalian cells (receptor)
chain: QERCGYMTAIPRLPRPDNLPVLNFEGQTWSQRPLLPAPERDDLCMDAYHVITANLGTQVIYMDEEIEDEITIAILNYNGPSTPFIELPFLSGSYNLLMPVIRRVDNGEWHLIITQRQHYELPGMQQYMFNVRVDGQSLVAGVSLAIVNIDDNAPIIQNFEPCRVPELGEPGLTECTYQVSDADGRISTEFMTFRIDSVRGDEETFYIERTNIPNQWMWLNMTIGVNTSLNFVTSPLHIFSVTALDSLPNTHTVTMMVQVANVNSRPPRWLEIFAVQQFEEKSYQNFTVRAIDGDTEINMPINYRLITNEEDTFFSIEALPGGKSGAVFLVSPIDRDTLQREVFPLTIVAYKYDEEAFSTSTNVVIIVTDINDQRPEPIHKEYRLAIMEETPLTLNFDKEFGFHDKDLGQNAQYTVRLESVDPPGAAEAFYIAPEVGYQRQTFIMGTLNHSMLDYEVPEFQSITIRVVATDNNDTRHVGVALVHIDLINWNDEQPIFEHAVQTVTFDETEGEGFFVAKAVAHDRDIGDVVEHTLLGNAVNFLTIDKLTGDIRVSANDSFNYHRESELFVQVRATDTLGEPFHTATSQLVIRLNDINNTPPTLRLPRGSPQVEENVPDGHVITQELRATDPDTTADLRFEINWDTSFATKQGRQANPDEFRNCVEIETIFPEINNRGLAIGRVVAREIRHNVTIDYEEFEVLSLTVRVRDLNTVYGDDYDESMLTITIIDMNDNAPVWVEGTLEQNFRVREMSAGGLVVGSVRADDIDGPLYNQVRYTIFPREDTDKDLIMIDFLTGQISVNTSGAIDADTPPRFHLYYTVVASDRCSTEDPADCPPDPTYWETEGNITIHITDTNNKVPQAETTKFDTVVYIYENATHLDEVVTLIASDLDRDEIYHTVSYVINYAVNPRLMNFFSVNRETGLVYVDYETQGSGEVLDRDGDEPTHRIFFNLIDNFMGEGEGNRNQNDTEVLVILLDVNDNAPELPPPSELSWTISENLKQGVRLEPHIFAPDRDEPDTDNSRVGYEILNLSTERDIEVPELFVMIQIANVTGELETAMDLKGYWGTYAIHIRAFDHGIPQMSMNETYELIIHPFNYYAPEFVFPTNDAVIRLARERAVINGVLATVNGEFLERISATDPDGLHAGVVTFQVVGDEESQRYFQVVNDGENLGSLRLLQAVPEEIREFRITIRATDQGTDPGPLSTDMTFRVVFVPTQGEPRFASSEHAVAFIEKSAGMEESHQLPLAQDIKNHLCEDDCHSIYYRIIDGNSEGHFGLDPVRNRLFLKKELIREQSASHTLQVAASNSPDGGIPLPASILTVTVTVREADPRPVFVRELYTAGISTADSIGRELLRLHATQSEGSAITYAIDYDTMVVDPSLEAVRQSAFVLNAQTGVLTLNIQPTATMHGLFKFEVTATDTAGAQDRTDVTVYVVSSQNRVYFVFVNTLQQVEDNRDFIADTFSAGFNMTCNIDQVVPANDPVTGVALEHSTQMRGHFIRDNVPVLADEIEQIRSDLVLLSSIQTTLAARSLVLQDLLTNSSPDSAPDSSLTVYVLASLSAVLGFMCLVLLLTFIIRTRALNRRLEALSMTKYGSLDSGLNRAGIAAPGTNKHTVEGSNPIFNEAIKTPDLDAISEGSNDSDLIGIEDLPHFGNVFMDPEVNEKANGYPEVANHNNNFAFNPTPFSPEFVNGQFRKI
modifications: N-glycosylated (210 kD)
As usually defined, the Kd is the free concentration of one partner at which half of the binding sites on the other are occupied at equilibrium, for simple one-to-one binding. High values mean a looser complex, low ones a tighter complex. Take B1: the Kd amounted to 1.01 nM.
